In the supplement of paper PMC9170038:

Tested on: MS2 coat protein
Assay: apparent KD of MS2 coat protein; designed switch direction (-1 OFF switch, 1 ON switch): 1; higher = weaker reporter binding
Summary of the method: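 Designed RNA switches were transcribed on Illumina chips by stalled E. coli RNA polymerase and titrated with SNAP-549-labelled MS2 coat protein from 0.7 or 1.5 nM, doubling to 3 µM. Step length ran from 0.8–1.5 h at the lowest concentration to 10–20 min at the highest. The apparent KD is the median over clusters for each design, from curve-fitted normalised cluster fluorescence.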

[1] = input ligand: microRNA oligo, concentration not stated
[2] = Eterna round: R95, input ligand: FMN 200 uM
[3] = Eterna round: R95, input ligand: microRNA oligo, concentration not stated
[4] = Eterna round: R95, input ligand: none

Sequence | apparent KD of MS2 coat protein (input ligand: FMN 200 uM) [nM] | apparent KD of MS2 coat protein [1] [nM] | apparent KD of MS2 coat protein (input ligand: none) [nM] | apparent KD of MS2 coat protein [2] [nM] | apparent KD of MS2 coat protein [3] [nM] | apparent KD of MS2 coat protein [4] [nM]
AACAGUCGGCGAGGAUAUGGACGGACAGGCUUGCCUGUGCGGCUCACAUGAGGAUCACCCAUGUUCUAGAAGGCGCCACUGAGA [Atteve] (Eterna round: R96, puzzle: Same State NG 2) | 21.3 | 50 | 81.7 |  |  | 
AAACAUGAGGAUCACCCAUGUCGAUUAAAACCCUAAUCUACUCAGGAUAUCCGAAUGCGCGUUUCGGAGAAGGGAGAAAUGUGA [Isessoreri] (Eterna round: R96, puzzle: Same State NG 3) | 27 | 37.5 | 31.7 |  |  | 
AUUAAUUAUGCAGGAUAUGAUUAACAUGAGGAUCACCCAUGUGGUGUUGUGAGUAAGGAGAGUGAUCAGAAGGGCAUUUUUUUU [JMF's solution 66] (Eterna round: R96, puzzle: Same State NG 2) | 652 | 524 | 449 |  |  | 
AAGUUAAGCUUUUUGUUCUGCCUAUUCCAACAUGAGGAUCACCCAUGUAGUCUGACGAUUGUGUGUGUAGUUGAGAU [JR_SHM208A_Sub028] (puzzle: Sensor for hsa-mir-208a) |  |  |  | 51.8 | 63.5 | 57.9
GGAGCCGGUACUGAGGAUAUUCAUAUUAAAACAUGAGGAUCACCCAUGUGGGCCAGAAGGCCUUGGGAGAAGGCAGACCAGCUCG [Atgexeedri - 3] (puzzle: Same State 2) |  |  |  | 15.4 | 115 | 177
AAGUAACAUGAGGAUCACCCAUGUGAGGUGAGCGUAGGAUAUCGAGAAGGAAGGGUGGAGCGAGAAGGACGAGAGG [JR_SS1_Sub0100] (puzzle: Same State 1) |  |  |  | 191 | 401 | 270
GCUAGUAUUAUUGCUAACAUGAGGAUCACCCAUGUAUGUUGGCAGGAUAUCGUUUGCAAAGCAAACGAGAAGGGCUAAACUAGC [Mat - Same State NG 3 - JL Mod - D13] (Eterna round: R96, puzzle: Same State NG 3) | 27.7 | 75.6 | 98.8 |  |  | 
GACAAUCUAUCUCAGGAUAUCAUGUCAAAGACAUGAGGAUCACCCAUGUACCAGGAAACUGGUUAUGAGAAGGGAGAUAGAUUGG [Mat - Same State 2 - Mod - D27] (puzzle: Same State 2) |  |  |  | 179 | 15.7 | 5660
GAAGGAUGAGCGUAGGAUAUAGGAGGAGUGACAUGAGGAUCACCCAUGUGGUAGGAGGGAGGGUACUAGAAGGACGAGGAAGAGG [JR_SS2_Sub069] (puzzle: Same State 2) |  |  |  | 216 | 106 | 161
UAAUUAAGUCAAGGAUAUCACGUCGAUUAGACGUGAGAAGGUGACCAAUACAUGAGGAUCACCCAUGUAAUACAUGAAUAAUUA [SSNG1/12-B2] (Eterna round: R96, puzzle: Same State NG 1) | 22.7 | 53.2 | 56.4 |  |  | 
UGGUACAUGGGAGGAUAUCUCAUGGAGACAUGAGGAUCACCCAUGUAGAUGGGCGGUAACGCCGGAGAGAAGGCCCAUGUACCU [JL SSNG1 3.70] (Eterna round: R96, puzzle: Same State NG 2) | 29.2 | 41.6 | 58.1 |  |  | 
UCUUGGUUUUUGCUCGUUUUUUGUGUUGAACAUGAGGAUCACCCAUGUAUUGUACGGUCCAAUUUAGUGGUAAUCCG [JMF 66] (puzzle: Sensor for hsa-mir-208a) |  |  |  | 45.1 | 29 | 48.7
CGGAAACGUCAAGGAUAUGCUACCGUUUCGGUAGCAGAAGGUGAUCACAUGAGGAUCACCCAUGUAUGCAUGCGUGAGCGUGCU [JL SSNG1 3.56] (Eterna round: R96, puzzle: Same State NG 1) | 206 | 187 | 177 |  |  | 
UAAAUAAAGUAAGGAUAUACAUGAGGAUUUCUCGUAGAAGGUACAAGACAUGAGGAUCACCCAUGUAUCGCUCCGUAGAGCGUA [Mat - Same State NG 1 - JL mod - D21] (Eterna round: R96, puzzle: Same State NG 1) |  | 57.7 |  |  |  | 
UAUUUAAUCGUAGGAUAUAGAAUGAAAUUUGUACUAGAAGGACGUUACAUGAGGAUCACCCAUGUGGUAAGUGGGACAUAGAUU [JR_SSNG1_Sub035] (Eterna round: R96, puzzle: Same State NG 1) | 235 | 105 | 121 |  |  | 
AGCCGAGACUGAGGAUAUUUUAAUCUACAUGAGGAUCACCCAUGUAACAACACGUGGUAUUGAUAGAAGAAGGCGGCUCGGCGC [Omei SS(NG)2 C] (Eterna round: R96, puzzle: Same State NG 2) | 24.3 | 50.4 | 64 |  |  | 
AGGAGACAUGAGGAUCACCCAUGUACUUCAUAAGGAGAGAACGAGGAUAUGUAGAGAGAGAGGGAACAGAAGGUGUGAGAGGAA [Default title] (Eterna round: R96, puzzle: Same State NG 3) | 18.7 | 16.2 | 18.7 |  |  | 
UGGAUCUAGGCUUGCCUGGGUCCAUGUUGACAUGAGGAUCACCCAUGUGUAUUUUUUAAGCUUUUUGUUUGUCAACA [JL A Humble Attempt mod 6] (puzzle: Sensor for hsa-mir-208a) |  |  |  | 42.4 | 13.2 | 42.5
GUUAGGAAUCUAGCAUACAUGAGGAUCACCCAUGUAAGUGGGAAGGAUAUGGUACAGAAACUGUACCAGAAGGUCUUAUUGAUU [Omei SS(NG) 3 AV6] (Eterna round: R96, puzzle: Same State NG 3) | 45.1 | 40.8 | 80.1 |  |  | 
CAAACUUAGUAGGAUAGGUACCCAGGAUGACAUGAGGAUCACCCAUGUAAGAGCUUUUUGCUCGUCAUUAACAGUUG [JR_SHM208a_Sub017] (puzzle: Sensor for hsa-mir-208a) |  |  |  | 51.7 | 53 | 78.3
AUAAAACAUGAGGAUCACCCAUGUAGACGGAGAAACGUCACAUAGGAUAUAGUCAGCGGCGUUGACUAGAAGGGUGGUAGAAAA [Qubeedbi] (Eterna round: R96, puzzle: Same State NG 3) | 286 | 97.4 | 251 |  |  | 
UAGAGAGGAAGCGAGGAUAUCGUGGGAGGAACAUGAGGAUCACCCAUGUGUGAUGUUGAGAGGGACGAGAAGGCGCGGGAAAGUA [JR_SS2_Sub079] (puzzle: Same State 2) |  |  |  | 171 | 194 | 277
AACUAUCUAUCUCAGGAUAUCAUGUCAAAGACAUGAGGAUCACCCAUGUACCAGGAAACUGGUUAUGAGAAGGGAGAUAGAUAGA [Mat - Same State 2 - Mod - D38] (puzzle: Same State 2) |  |  |  | 92.5 | 87.7 | 97
